According to article PMC6255772:

What was measured:
[1] = target: recombinant human IGF-2 (human); assay: SPR; competition with immobilized MEDI-573; settings: Fc fusion
[2] = target: IGF-TRAP-3.1 (human) (UniProt P08069); assay: SPR; BioRad ProteOn, GLC chip; about 1200 RU IGF-TRAP captured on immobilised goat anti-human Fc antibody; ligands 320-3.95 nM injected in triplicates, 120 s association, 600 s dissociation; PBST, 25 °C; 1:1 binding model
[3] = target: IGF-TRAP-3.3 (human) (UniProt P08069); assay: as above

**Q.** For “IGF-TRAP-3.3 (from UniProt P08069 31-736; P08069 741-935; P01857 1-328)”, which IC50 [1] is on record?
**A.** The IC50 was 6.44 nM.

**Q.** With human insulin (ligand) as the substance, how does the fold lower affinity than for the IGF ligands [2] read?
**A.** Its fold lower affinity than for the IGF ligands is 1000 fold.

**Q.** And the fold lower affinity than for the IGF ligands [3]?
**A.** Its fold lower affinity than for the IGF ligands is 1000 fold.
